Data on five molecules can be found in patent US20250002577A1 (ONCORESPONSE, published 2025).

Test [1] concerns the target T1, human LILRB1 on cells (human, UniProt Q8NHL6 24-650).
T1 construct: whole, on cells; also called hLILRB1; LILRB1-expressing 721.221 cells
As to the kind of experiment: flow cytometry, 721.221 cells, AF647-labelled antibody. The essentials:
(§1)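 Cells were blocked 30 min at 4° C in FACS buffer with 10% FBS and 0.5 mg/mL human IgG1. AF647-labelled antibodies were then bound for 1 h at 4° C. After Zombie Violet viability staining, binding was read by flow cytometry.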

Test [2] addresses T2, human LILRB2 on cells (human, UniProt Q8N423 22-597).
T2 construct: whole, on cells; also called hLILRB2; LILRB2-HEK293T
Put plainly: flow cytometry, LILRB2-HEK293T cells, AF647-labelled antibody. The essentials: as §1

Test [3] has as its target T3, human LILRB5 on HEK293-6E cells (human, UniProt O75023 24-590).
T3 construct: whole, on cells; also called hLILRB5
As to the kind of experiment: flow cytometry, HEK293-6E transfectants. Summed up: (§2)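 Antibody binding measured by flow cytometry on HEK293-6E cells transiently transfected with individual human LILRB (1–5) or LILRA (1, 2, 4, 5, 6) plasmids. Antibodies tested at 1 μg/mL.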

Test [4] has as its target T4, human LILRA1 on HEK293-6E cells (human, UniProt O75019 17-489).
T4 construct: whole, on cells; also called hLILRA1
As to the kind of experiment: flow cytometry, HEK293-6E transfectants. Summed up:
as §2

Test [5] has as its target T5, human LILRB3 on HEK293-6E cells (human, UniProt O75022 24-631).
T5 construct: whole, on cells; also called hLILRB3
As to the kind of experiment: flow cytometry, HEK293-6E transfectants. Summed up: as §2

Test [6] has as its target T6, human LILRB4 on HEK293-6E cells (human, UniProt Q8NHJ6 22-448).
T6 construct: whole, on cells; also called hLILRB4
Put plainly: flow cytometry, HEK293-6E transfectants. The essentials:
as §2

The target of test [7] is T7, human LILRA5 on HEK293-6E cells (human, UniProt A6NI73 42-299).
T7 construct: whole, on cells; also called hLILRA5
As to the kind of experiment: flow cytometry, HEK293-6E transfectants. Summed up:
as §2

For test [8], the target named is T8, human LILRA4 on HEK293-6E cells (human, UniProt P59901 24-499).
T8 construct: whole, on cells; also called hLILRA4
Put plainly: flow cytometry, HEK293-6E transfectants. Summed up: as §2

The target of test [9] is T1, human LILRB1 on cells. Put plainly: flow cytometry, HEK293-6E transfectants. Summed up: as §2
In test [10] the target is T2, human LILRB2 on cells. Put plainly: flow cytometry, HEK293-6E transfectants. The essentials: as §2
Test [11] addresses T9, human LILRA2 on HEK293-6E cells (human, UniProt Q8N149 24-483).
T9 construct: whole, on cells; also called hLILRA2
Put plainly: flow cytometry, HEK293-6E transfectants. Summed up:
as §2

Test [12] concerns the target T10, human LILRA6 on HEK293-6E cells (human, UniProt Q6PI73 24-481).
T10 construct: whole, on cells; also called hLILRA6
Put plainly: flow cytometry, HEK293-6E transfectants. The essentials:
as §2

Test [13] concerns the target T11, recombinant cynomolgus LILRB1 (cynomolgus).
T11 construct: Bought protein
Put plainly: MSD ELISA, coated antigen, purified IgG1.

Test [14] addresses T12, recombinant human LILRB2-His (human, UniProt Q8N423 22-461, limits assumed).
T12 construct: Bought protein; also called LILRB2 protein
As to the kind of experiment: MSD ELISA, coated antigen, purified IgG1.

For test [15], the target named is T13, recombinant human LILRB1-His (human, UniProt Q8NHL6 24-458).
T13 construct: Bought protein; also called LILRB1 protein
Put plainly: MSD ELISA, coated antigen, purified IgG1.

Test [16] concerns the target T1, human LILRB1 on cells. Put plainly: flow cytometry, AF647-labelled antibody at 10 µg/mL on human PBMC, gate: CD56dim CD16+ NK cells (LILRB1-expressing subset per paragraph 345). As for the experimental part: To further characterize the binding of LILRB2/1 antibodies to LILRB1 expressing immune cell subsets (namely, B, T, and NK cells), binding assays were performed with primary human PBMCs. Single cell suspensions of peripheral blood mononuclear cells (PBMCs) from healthy donors were seeded at 0.5 million per well in 96-well plates (Thermo Fisher, No. 249946). PBMCs were blocked with 0.5 mg/mL of human IgG1 myeloma plasma (Athens Research, No. 16-16-090707-1M) in FACS Buffer (PBS containing 2% FBS, 2 mM EDTA and 0.05% NaN₃) for 45 min to 1 h at 4° C. The immune cell phenotyping antibodies and indicated AlexaFluor647-labeled test antibodies were then added to the cells and incubated for 45 min to 1 h at 4° C.
Cells were washed 1× with PBS and stained with the Zombie Violet™ fixable viability dye for 15 min at RT for live cell discrimination. Cells were washed 1× with FACS Buffer, fixed, and acquired on a FACS Symphony cytometer (BD Biosciences). Data analysis was performed using the FlowJo software (v10.8.1). […]

Test [17] has as its target T2, human LILRB2 on cells. As to the kind of experiment: flow cytometry, AF647-labelled antibody on HEK293T cells stably expressing human LILRB2. As for the experimental part: While LILRB2 expression is mostly restricted to myeloid cells, LILRB1 has a broader expression on immune cell subsets, including B cells, T cells and NK cells.
Frozen cells were removed from storage in vapor phase liquid nitrogen and thawed by gentle swirling in a water bath at 37° C., then resuspended in DMEM media with 10% FBS. Cells were placed in a 15 mL conical tube and centrifuged at 300×g for 5 min, then supernatant was removed. Cells were resuspended in DMEM+10% FBS at a cell density of 2×10⁵ cells/mL in a T75 flask for culturing, and incubated at 37° C., 5% CO₂ for 3 days before passaging. Cells were passaged when the cell density reached 1×10⁶ cell/mL. On the day of the assay, cells were centrifuged, then supernatant was removed. Cells were resuspended in Blocking Buffer B (FACS Buffer containing 10% FBS and 0.5 mg/mL human IgG1 (Athens Research, No. 16-16-090707-1M)+0.05% NaN₃, 5% (w/v)) in a 15 mL conical tube, then incubated at 4° C. for 30 min. […] Cells were incubated with antibodies at 4° C. for 1 h. Cells were washed twice in FACS Buffer (PBS containing 2 mM EDTA+1% FBS+0.05% NaN₃) and then stained with for 10 min with Zombie Violet™ fixable viability dye (BioLegend, No. 423114) at RT, washed with FACS Buffer and resuspend in 75 μL of FACS Buffer for acquisition on a BD FACSymphony™ or BD FACSCanto™ II flow cytometer (BD Biosciences), as described in Example 6.

T2 sequence (Q8N423 22-597): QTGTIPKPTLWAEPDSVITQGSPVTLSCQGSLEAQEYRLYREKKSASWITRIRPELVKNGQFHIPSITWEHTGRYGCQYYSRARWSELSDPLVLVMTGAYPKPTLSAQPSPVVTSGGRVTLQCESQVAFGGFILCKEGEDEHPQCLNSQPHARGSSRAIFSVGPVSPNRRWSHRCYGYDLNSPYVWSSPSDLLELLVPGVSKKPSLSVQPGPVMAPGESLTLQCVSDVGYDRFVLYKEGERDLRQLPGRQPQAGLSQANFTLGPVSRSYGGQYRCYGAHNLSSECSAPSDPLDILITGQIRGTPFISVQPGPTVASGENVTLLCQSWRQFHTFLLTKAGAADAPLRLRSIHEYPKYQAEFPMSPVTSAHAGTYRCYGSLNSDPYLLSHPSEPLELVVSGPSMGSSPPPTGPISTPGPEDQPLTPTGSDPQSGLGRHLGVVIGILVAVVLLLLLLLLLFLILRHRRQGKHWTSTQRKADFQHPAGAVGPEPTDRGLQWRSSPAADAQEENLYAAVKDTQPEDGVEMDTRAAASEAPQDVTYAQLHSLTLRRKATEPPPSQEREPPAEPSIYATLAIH
T9 sequence (Q8N149 24-483): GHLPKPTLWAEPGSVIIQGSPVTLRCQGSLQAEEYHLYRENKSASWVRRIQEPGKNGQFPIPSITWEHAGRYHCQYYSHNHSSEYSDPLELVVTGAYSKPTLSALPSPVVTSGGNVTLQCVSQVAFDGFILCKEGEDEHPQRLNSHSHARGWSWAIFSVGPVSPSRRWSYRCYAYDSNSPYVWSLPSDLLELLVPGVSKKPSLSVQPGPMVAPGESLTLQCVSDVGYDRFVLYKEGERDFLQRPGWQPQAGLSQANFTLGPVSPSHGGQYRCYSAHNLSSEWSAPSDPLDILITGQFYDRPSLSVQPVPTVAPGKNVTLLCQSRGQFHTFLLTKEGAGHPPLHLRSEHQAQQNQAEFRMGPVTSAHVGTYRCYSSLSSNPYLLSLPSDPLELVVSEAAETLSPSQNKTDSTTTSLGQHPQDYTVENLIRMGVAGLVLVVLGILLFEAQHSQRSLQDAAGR
T4 sequence (O75019 17-489): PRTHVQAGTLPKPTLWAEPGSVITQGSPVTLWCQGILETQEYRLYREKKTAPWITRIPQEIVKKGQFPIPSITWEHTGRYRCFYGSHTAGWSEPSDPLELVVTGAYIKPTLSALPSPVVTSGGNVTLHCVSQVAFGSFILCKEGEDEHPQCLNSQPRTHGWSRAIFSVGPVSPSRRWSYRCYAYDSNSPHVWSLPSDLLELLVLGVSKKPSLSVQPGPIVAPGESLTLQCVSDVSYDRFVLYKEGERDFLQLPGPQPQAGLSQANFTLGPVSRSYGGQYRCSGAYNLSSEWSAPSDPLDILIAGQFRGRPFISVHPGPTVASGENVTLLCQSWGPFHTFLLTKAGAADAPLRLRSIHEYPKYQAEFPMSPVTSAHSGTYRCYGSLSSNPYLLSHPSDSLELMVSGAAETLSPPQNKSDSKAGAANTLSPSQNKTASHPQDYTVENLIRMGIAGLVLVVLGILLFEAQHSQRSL
T8 sequence (P59901 24-499): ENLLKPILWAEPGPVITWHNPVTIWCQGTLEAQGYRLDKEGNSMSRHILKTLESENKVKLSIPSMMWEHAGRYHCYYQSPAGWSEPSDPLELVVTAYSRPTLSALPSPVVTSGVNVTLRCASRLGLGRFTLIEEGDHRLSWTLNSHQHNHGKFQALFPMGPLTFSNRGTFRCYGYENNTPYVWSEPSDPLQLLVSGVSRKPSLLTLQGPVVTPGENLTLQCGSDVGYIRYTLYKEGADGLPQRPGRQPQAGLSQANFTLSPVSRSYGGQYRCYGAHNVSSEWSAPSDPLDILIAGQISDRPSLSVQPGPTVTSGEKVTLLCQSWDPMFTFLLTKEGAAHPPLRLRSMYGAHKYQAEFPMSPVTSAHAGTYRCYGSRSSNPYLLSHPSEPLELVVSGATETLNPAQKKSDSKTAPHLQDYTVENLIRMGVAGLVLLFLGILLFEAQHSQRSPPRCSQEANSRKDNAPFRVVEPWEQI
T7 sequence (A6NI73 42-299): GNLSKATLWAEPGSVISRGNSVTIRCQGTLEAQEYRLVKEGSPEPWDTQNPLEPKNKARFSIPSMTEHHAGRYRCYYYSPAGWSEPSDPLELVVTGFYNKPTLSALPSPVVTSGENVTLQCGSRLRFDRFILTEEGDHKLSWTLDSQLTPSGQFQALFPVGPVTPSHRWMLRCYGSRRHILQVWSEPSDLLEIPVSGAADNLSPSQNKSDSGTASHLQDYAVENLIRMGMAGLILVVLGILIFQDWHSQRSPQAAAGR
T10 sequence (Q6PI73 24-481): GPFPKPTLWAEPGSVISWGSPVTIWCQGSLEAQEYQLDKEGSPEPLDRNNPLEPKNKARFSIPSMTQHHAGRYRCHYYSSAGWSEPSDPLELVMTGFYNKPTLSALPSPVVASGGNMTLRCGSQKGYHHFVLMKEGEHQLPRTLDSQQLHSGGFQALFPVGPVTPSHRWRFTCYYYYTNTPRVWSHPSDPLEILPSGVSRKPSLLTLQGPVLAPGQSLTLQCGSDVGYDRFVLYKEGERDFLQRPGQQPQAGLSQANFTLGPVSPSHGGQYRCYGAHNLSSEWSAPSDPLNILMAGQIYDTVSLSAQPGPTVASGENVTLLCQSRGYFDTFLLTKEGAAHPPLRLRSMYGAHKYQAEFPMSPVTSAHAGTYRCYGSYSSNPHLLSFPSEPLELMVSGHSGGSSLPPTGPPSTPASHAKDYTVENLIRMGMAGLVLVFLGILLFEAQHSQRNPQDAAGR
T1 sequence (Q8NHL6 24-650): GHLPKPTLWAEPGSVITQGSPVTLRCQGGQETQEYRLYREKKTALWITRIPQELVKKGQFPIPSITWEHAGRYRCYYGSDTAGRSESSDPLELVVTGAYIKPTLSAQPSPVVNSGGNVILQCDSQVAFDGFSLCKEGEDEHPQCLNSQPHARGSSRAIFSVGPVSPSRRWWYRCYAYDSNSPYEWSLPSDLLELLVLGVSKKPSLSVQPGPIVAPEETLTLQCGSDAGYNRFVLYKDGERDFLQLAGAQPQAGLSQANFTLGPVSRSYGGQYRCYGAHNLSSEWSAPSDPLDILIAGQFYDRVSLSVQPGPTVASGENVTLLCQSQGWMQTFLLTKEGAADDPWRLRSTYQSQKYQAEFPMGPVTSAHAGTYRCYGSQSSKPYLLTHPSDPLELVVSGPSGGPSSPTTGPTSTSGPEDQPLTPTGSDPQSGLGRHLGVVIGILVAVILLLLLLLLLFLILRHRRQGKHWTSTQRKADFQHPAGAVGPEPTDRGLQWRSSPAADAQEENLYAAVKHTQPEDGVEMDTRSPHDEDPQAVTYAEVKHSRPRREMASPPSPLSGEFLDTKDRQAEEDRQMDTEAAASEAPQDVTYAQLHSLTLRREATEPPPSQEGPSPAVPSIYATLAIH
T5 sequence (O75022 24-631): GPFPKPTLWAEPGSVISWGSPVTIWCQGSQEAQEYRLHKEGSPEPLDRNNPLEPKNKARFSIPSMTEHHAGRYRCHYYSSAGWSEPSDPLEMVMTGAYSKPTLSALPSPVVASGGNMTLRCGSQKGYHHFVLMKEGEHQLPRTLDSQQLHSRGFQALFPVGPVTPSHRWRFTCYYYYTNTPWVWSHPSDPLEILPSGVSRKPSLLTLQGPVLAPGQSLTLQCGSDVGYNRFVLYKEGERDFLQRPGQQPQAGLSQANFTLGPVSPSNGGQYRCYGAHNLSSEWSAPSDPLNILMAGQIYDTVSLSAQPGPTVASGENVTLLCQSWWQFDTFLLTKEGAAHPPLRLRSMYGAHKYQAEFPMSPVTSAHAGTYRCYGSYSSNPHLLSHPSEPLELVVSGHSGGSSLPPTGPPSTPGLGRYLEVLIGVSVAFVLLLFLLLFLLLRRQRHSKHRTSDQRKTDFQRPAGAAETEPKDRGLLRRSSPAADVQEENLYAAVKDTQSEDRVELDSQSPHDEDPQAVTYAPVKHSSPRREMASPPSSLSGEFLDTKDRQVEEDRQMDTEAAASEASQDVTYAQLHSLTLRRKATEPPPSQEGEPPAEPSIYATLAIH
T3 sequence (O75023 24-590): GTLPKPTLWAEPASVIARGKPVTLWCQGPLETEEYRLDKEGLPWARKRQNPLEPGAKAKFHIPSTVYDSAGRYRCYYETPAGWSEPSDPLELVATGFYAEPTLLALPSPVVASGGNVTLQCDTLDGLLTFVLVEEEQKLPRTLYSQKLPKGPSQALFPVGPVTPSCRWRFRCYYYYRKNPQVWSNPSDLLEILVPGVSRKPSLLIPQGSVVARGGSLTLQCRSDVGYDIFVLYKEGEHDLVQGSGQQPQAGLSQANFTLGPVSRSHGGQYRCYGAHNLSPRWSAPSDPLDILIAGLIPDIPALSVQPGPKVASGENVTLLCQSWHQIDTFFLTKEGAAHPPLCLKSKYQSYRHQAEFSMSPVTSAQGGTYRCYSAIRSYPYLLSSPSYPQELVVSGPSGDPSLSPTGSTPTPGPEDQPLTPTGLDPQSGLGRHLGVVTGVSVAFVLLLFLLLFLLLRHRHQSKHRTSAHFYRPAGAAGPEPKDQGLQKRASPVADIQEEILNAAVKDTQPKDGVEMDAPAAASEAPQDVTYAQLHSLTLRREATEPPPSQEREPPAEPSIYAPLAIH
T12 sequence (Q8N423 22-461 limits assumed): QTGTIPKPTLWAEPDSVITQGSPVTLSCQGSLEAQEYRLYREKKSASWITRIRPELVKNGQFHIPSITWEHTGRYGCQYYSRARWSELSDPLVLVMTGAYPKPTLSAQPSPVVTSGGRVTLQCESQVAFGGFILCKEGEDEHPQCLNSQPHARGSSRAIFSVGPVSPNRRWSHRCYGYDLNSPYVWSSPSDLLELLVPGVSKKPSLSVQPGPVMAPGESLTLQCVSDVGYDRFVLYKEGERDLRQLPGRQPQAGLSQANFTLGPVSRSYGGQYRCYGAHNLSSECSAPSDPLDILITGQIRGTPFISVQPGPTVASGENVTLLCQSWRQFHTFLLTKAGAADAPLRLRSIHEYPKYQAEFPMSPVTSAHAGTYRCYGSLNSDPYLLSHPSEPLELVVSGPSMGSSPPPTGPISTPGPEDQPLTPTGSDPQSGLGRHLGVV

B1: B21H1-14 (antibody, human IgG1, kappa)
heavy: not shown
light: DVVMTQSPSTVSASVGDRVTLTCQASGNIYSFLAWYQQKPGQPPKLLIYTASNLETGVPDRFSGSGSGTDYTLTISSLQADDFATYYCLGGLYSSDVSYAFGQGTKVEIKRTVAAPSVFIFPPSDEQLKSGTASVVCLLNNFYPREAKVQWKVDNALQSGNSQESVTEQDSKDSTYSLSSTLTLSKADYEKHKVYACEVTHQGLSSPVTKSFNRGEC
notes: humanized IgG1/kappa, VH1+VL4
For B1, the EC50 with human LILRB1 on cells [1] came out at 0.0552 mg/L; with human LILRB2 on cells [2] it was 0.0011 mg/L; in test [13], 0.45 mg/L; in test [14] it was 0.0187 mg/L; in test [15], 0.00593 mg/L. Further, the MFI in [3] worked out at 93.3 MFI; in [4], 249 MFI; in [5], 104 MFI; in [6], 33.5 MFI; in test [7], 78.3 MFI; in test [8], 140 MFI. The MFI was determined as 988 MFI with human LILRB1 on cells [9], 5760 MFI with human LILRB2 on cells [10], 28.6 MFI in test [11] and 151 MFI in test [12]. The binding result in test [3], in test [4], in test [5], in [6], in test [7] and in [8] was “no binding (tested: 1 µg/mL)” in each case. Also, the binding result in test [11] and in [12] was “no binding (tested: 1 µg/mL)” each time.

B2: Comp 1 (anti-LILRB1 antibody) (antibody, human IgG1, kappa, V domains shown)
VH: QVQLKESGPGLVAPSQSLSITCTVSGFSLTNYGVSWVRQPPGKGLEWLGIIWGDGSTNYHSALISRLSISKDNSKSQVFLKLNSLQADDTATYYCAKPNWDTYAMDFWGQGTSVTVSS
VL: DIQMTQTTSSLSASLGDRVTISCRASQDISNFLNWYQQKPDGTVKLLIYCTSKLHSGVPSRFSGSGSETDYSLTISNLEQEDIATYFCQQGNTLPPTFGGGTKLEIIR
With B2, the binding result with human LILRB1 on cells [16] is on record as “binds”.

B3: Comp 2 (anti-LILRB2 antibody) (antibody, human IgG1, kappa, V domains shown)
VH: QIQLVQSGPELKKPGETVKISCKASGYTFTNYGMNWVKQAPGKGLKWMGWINTYIGEPIYADDFKGRFAFSLETSASTAYLQINNLKNEDMATYFCARRSDYDGYAMDYWGQGTSVTVSS
VL: DIVMSQSPSSLAVSVGERVTMSCKSSQSLLYSGNQKNYLAWYQQKPGQSPKLLIYWASTRESGVPDRFTGSGSGTDFTLTISSVKAEDLAVYYCQQHDSYPTFGGGSRLEIKR
In the case of B3, the “EC50 (read off the curve)” value in the test with human LILRB2 on cells [17] is approximately 0.6 nM.

B4: B21H1-55 (antibody, human IgG1, kappa)
heavy: not shown
light: DIQMTQTPSTVEASVGGTVTITCQASGNIYSFLAWYQQKPGQPPKLLIYTASNLETGVPSRFSGSGSGTEYTLTISGLQSDDAATYYCLGGLYSSDVSYAFGGGTEVVVKRTVAAPSVFIFPPSDEQLKSGTASVVCLLNNFYPREAKVQWKVDNALQSGNSQESVTEQDSKDSTYSLSSTLTLSKADYEKHKVYACEVTHQGLSSPVTKSFNRGEC
notes: humanized IgG1/kappa, VH5+VL5
B4: the EC50 is 0.0507 mg/L with human LILRB1 on cells [1]; 0.00071 mg/L in the test with human LILRB2 on cells [2]; 0.25 mg/L in [13]; 0.0369 mg/L in test [14]; 0.00944 mg/L in test [15]. Besides, the MFI amounted to 94.8 MFI in [3]; 332 MFI in test [4]; 108 MFI in test [5]; 33.5 MFI in test [6]; 77.4 MFI in [7]; 144 MFI in [8]. In addition, the MFI with human LILRB1 on cells [9] was 1030 MFI; in the test with human LILRB2 on cells [10], 4120 MFI; in test [11], 27.9 MFI; in [12], 148 MFI. Also, the binding result in [3], in test [4], in [5], in test [6], in test [7] and in test [8] was “no binding (tested: 1 µg/mL)” each time. The binding result in [11] and in [12] was “no binding (tested: 1 µg/mL)” throughout.

B5: Comp 3 (antibody, human IgG1, kappa, N297G, V domains shown)
VH: QVQLVQSGAEVKKPGASVKVSCKASGYTFTDYYINWVRQAPGQGLEWMGNVNPNDGGTTYNQKFKGRVTMTTDTSTSTAYMELRSLRSDDTAVYYCARREIYFYGTIYYYAMDYWGQGTLVTVSS
VL: DIQLTQSPSFLSASVGDRVTITCRASESVDYYGNSFMYWYQQKPGKAPKLLIYFASNLESGVPSRFSGSGSGTEFTLTISSLQPEDFATYYCQQNNEDPWTFGGGTKVEIKR
notes: The text says 'a LILRB2/1 antibody (Comp 3); also called comparator LILRB2/1 antibody
Regarding B5, the binding result with human LILRB1 on cells [16] is “binds”.
